Experimental data taken from article PMC3527362, “Structural and Functional Insights into (S)-Ureidoglycolate Dehydrogenase, a Metabolic Branch Point Enzyme in Nitrogen Utilization” (PLoS ONE, 2012).
Where a chain is given by its changes, count along the chain named. In names and notes the source's numbering stands.

B1: (S)-ureidoglycolate dehydrogenase (AllD) (Escherichia coli K-12; Y52F) (protein)
chain: MKISRETLHQLIENKLCQAGLKREHAATVAEVLVYADARGIHSHGAVRVEYFAERISKGGTNREPEFRLEETGPCSAILHADNAAGQVAAKMGMEHAIKTAQQNGVAVVGISRMGHSGAISYFVQQAARAGFIGISMCQSDPMVVPFGGAEIYYGTNPLAFAAPGEGDEILTFDMATTVQAWGKVLDARSRNMSIPDTWAVDKNGVPTTDPFAVHALLPAAGPKGYGLMMMIDVLSGVLLGLPFGRQVSSMYDDLHAGRNLGQLHIVINPNFFSSSELFRQHLSQTMRELNAITPAPGFNQVYYPGQDQDIKQRKAAVEGIEIVDDIYQYLISDALYNTSYETKNPFAQ
notes: full length, modified pET28b with N-terminal His-tag and TEV site, expressed in E. coli BL21(DE3); tag cut for crystals, kept on mutant enzymes for kinetics; homodimer
B2: (S)-ureidoglycolate dehydrogenase (AllD) (Escherichia coli K-12; D141E) (protein)
chain: B1 chain with F52Y, D141E
notes: as for B1
B3: (S)-ureidoglycolate dehydrogenase (AllD) (Escherichia coli K-12; R259A) (protein)
chain: B1 chain with F52Y, R259A
notes: as for B1
B4: (S)-ureidoglycolate dehydrogenase (AllD) (Escherichia coli K-12; S43A) (protein)
chain: B1 chain with S43A, F52Y
notes: as for B1
B5: (S)-ureidoglycolate dehydrogenase (AllD) (Escherichia coli K-12; D141A) (protein)
chain: B1 chain with F52Y, D141A
notes: as for B1
B6: (S)-ureidoglycolate dehydrogenase (AllD) from Escherichia coli (enzyme, Escherichia coli str. K-12 substr. DH10b, UniProt P77555 1-349, looked up)
chain: B1 chain with F52Y
notes: (S)-ureidoglycolate dehydrogenase AllD, product of the allD gene of E. coli str; K-12 substr; DH10b; ordered residues in the crystals Met1 to Tyr337/Asn338 (subunit A); Homodimer; Cloned into a modified pET28b with a TEV site between the His-tag and the multicloning sites; also called EC 1.1.1.154; not shown: His-tag, N-terminal, cleaved
B7: (S)-ureidoglycolate dehydrogenase (AllD) (Escherichia coli K-12; H44A) (protein)
chain: B1 chain with H44A, F52Y
notes: as for B1
B8: (S)-ureidoglycolate dehydrogenase (AllD) (Escherichia coli K-12; S140A) (protein)
chain: B1 chain with F52Y, S140A
notes: as for B1
B9: (S)-ureidoglycolate dehydrogenase (AllD) (Escherichia coli K-12; D141N) (protein)
chain: B1 chain with F52Y, D141N
notes: as for B1
B10: (S)-ureidoglycolate dehydrogenase (AllD) (Escherichia coli K-12; M251A) (protein)
chain: B1 chain with F52Y, M251A
notes: as for B1

Assays:
[1] = biological target: T1, (S)-ureidoglycolate dehydrogenase (AllD) (Escherichia coli, UniProt P77555); assay: X-ray crystal structure, soaking, […] Å; type: binding; conditions: ternary complex with NADH; soaked with 7.5 mM oxalurate reaction mixture, glyoxylate modelled in subunit A only, pH 8.1
T1 construct: full length, modified pET28b with N-terminal His-tag and TEV site, expressed in E. coli BL21(DE3); tag cut for crystals, kept on mutant enzymes for kinetics; homodimer
T1 sequence (P77555 whole entry): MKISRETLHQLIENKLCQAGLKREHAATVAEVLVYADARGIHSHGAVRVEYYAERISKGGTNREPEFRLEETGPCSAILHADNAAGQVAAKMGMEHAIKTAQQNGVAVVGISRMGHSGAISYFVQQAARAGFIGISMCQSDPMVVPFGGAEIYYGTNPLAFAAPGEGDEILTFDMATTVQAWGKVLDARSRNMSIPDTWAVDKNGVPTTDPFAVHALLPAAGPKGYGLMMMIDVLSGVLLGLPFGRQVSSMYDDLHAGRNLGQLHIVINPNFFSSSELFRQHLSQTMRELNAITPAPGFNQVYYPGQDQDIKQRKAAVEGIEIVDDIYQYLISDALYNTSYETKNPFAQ

[2] = biological target: T1, (S)-ureidoglycolate dehydrogenase (AllD); assay: X-ray crystal structure, soaking, […] Å; type: binding; conditions: 100 mM NADH soak, pH 8.1; one NADH in each subunit; site includes residues of the other subunit
[3] = substrate: NC(=O)N[C@@H](O)C(=O)O; assay: purified protein; type: biochemical, Escherichia coli; conditions: 3 mM NAD+ (saturating), 30 °C, value in parentheses is standard error
[4] = substrate: NC(=O)c1ccc[n+]([C@@H]2O[C@H](COP(=O)(O)OP(=O)(O)OC[C@H]3O[C@@H](n4cnc5c(N)ncnc54)[C@H](O)[C@@H]3O)[C@@H](O)[C@H]2O)c1; assay: purified protein; type: biochemical, Escherichia coli; conditions: 15.3 mM (S)-ureidoglycolate, 30 °C, value in parentheses is standard error
[5] = biological target: the molecule itself; assay: SEC; size-exclusion chromatography of AllD; conditions not described

Row | Molecule | Km ([3]; His-tag kept) | kcat ([3]; His-tag kept) [s⁻¹] | kcat/Km ([3]; His-tag kept) [M⁻¹ s⁻¹] | further results
1 | O=CC(=O)O [glyoxylate] |  |  |  | X-ray crystal structure, soaking, 1.77 Å [1]: 4FJU for the AllD-NADH-glyoxylate ternary complex
2 | NC(=O)C1=CN([C@@H]2O[C@H](COP(=O)(O)OP(=O)(O)OC[C@H]3O[C@@H](n4cnc5c(N)ncnc54)[C@H](O)[C@@H]3O)[C@@H](O)[C@H]2O)C=CC1 [NADH] |  |  |  | X-ray crystal structure, soaking, 1.64 Å [2]: 4H8A for the AllD-NADH binary complex
3 | B1 | 16.82 (3.92) mM | 1.92 | 110 | 
4 | B2 | 14.13 (2.37) mM | 1.67 | 120 | 
5 | B3 | 11.47 (1.25) mM | 12 | 1040 | Km ([4]; His-tag kept): 1.49 (0.07) mM; kcat ([4]; His-tag kept): 9.29 s⁻¹; kcat/Km ([4]; His-tag kept): 6230 M⁻¹ s⁻¹
6 | B4 | 10.75 (1.01) mM | 1.37 | 130 | 
7 | B5 | 5.27 (0.46) mM | 1.62 | 310 | 
8 | B6 |  |  |  | Km [3]: 1.06 (0.08) mM; kcat [3]: 57.1 s⁻¹; kcat/Km [3]: 54300 M⁻¹ s⁻¹; Km [4]: 0.56 (0.04) mM; kcat [4]: 62.4 s⁻¹; kcat/Km [4]: 110000 M⁻¹ s⁻¹; stoichiometry N [5]: 2
9 | B7 | 16.94 (2.04) mM | 1.76 | 100 | 
10 | B8 | 12.38 (2.19) mM | 1.29 | 100 | 
11 | B9 | 5.84 (0.25) mM | 1.97 | 340 | 
12 | B10 | 13.15 (1.62) mM | 46 | 3490 | 
